Experimental findings from patent US20110135672A1 are described below.

In experiment [1] the target is ILT4 receptor on dendritic cells of ILT4 transgenic mice (UniProt Q8N423). The experiment in a line: cell-based or functional assay.
Experiment [2] deals with ILT2-PILRβ chimera on NFAT-GFP reporter cells (UniProt Q8NHL6). The experiment in a line: cell-based or functional assay.
Sequence of ILT2-PILRβ chimera on NFAT-GFP reporter cells (Q8NHL6 24-461, change not shown): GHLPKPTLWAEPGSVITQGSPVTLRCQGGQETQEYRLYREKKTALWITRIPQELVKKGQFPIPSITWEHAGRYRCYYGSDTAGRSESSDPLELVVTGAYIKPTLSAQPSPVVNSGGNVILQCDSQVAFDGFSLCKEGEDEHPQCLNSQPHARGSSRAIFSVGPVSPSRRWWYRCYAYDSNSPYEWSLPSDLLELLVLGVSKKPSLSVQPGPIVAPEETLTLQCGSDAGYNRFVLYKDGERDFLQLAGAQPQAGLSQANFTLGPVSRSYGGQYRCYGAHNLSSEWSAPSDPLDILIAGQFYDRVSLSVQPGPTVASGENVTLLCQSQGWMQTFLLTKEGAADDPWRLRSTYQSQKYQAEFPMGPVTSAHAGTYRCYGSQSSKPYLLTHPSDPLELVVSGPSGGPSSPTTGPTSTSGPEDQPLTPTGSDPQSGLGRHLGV

Sequence of ILT4 receptor on dendritic cells of ILT4 transgenic mice (Q8N423 22-597 limits assumed): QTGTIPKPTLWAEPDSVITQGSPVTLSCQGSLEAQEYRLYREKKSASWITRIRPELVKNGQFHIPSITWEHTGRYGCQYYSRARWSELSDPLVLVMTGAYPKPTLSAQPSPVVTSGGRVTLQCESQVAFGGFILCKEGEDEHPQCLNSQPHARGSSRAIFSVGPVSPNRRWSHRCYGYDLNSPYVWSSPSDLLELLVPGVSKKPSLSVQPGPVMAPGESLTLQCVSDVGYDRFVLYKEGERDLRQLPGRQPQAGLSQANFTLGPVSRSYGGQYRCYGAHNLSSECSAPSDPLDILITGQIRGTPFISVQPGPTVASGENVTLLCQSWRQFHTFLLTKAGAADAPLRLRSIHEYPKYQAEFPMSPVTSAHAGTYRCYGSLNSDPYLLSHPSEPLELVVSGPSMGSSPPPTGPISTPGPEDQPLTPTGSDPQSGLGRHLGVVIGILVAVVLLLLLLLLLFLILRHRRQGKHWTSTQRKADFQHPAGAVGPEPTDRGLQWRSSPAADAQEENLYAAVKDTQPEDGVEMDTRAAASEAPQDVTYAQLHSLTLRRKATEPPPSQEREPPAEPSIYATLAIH

“HLA-G1 tetrameric complexes (from UniProt P17693 25-300; P61769 21-119) (ligand)” displayed a fold increase of IL-6 transcript in ILT4-positive BMDCs (gene array) in experiment [1] of 9.3 fold.
In experiment [2], “HLA-G5 dimer (from UniProt P17693 25-338; P61769 21-119) (ligand)” returned an MFI of GFP at 100 ng/ml immobilized ligand (NFAT-GFP reporter) of 9.9 MFI and a percentage of GFP-positive cells at 100 ng/ml immobilized ligand (NFAT-GFP reporter) of 56.8%. This substance displayed a fold increase of IL-6 transcript in ILT4-positive BMDCs (gene array) in experiment [1] of 8.9 fold.
Turning to “HLA-G5 monomer (from UniProt P17693 25-338; P61769 21-119) (ligand)”, in experiment [2], the mean fluorescent intensity (MFI) of GFP at 100 ng/ml immobilized ligand (NFAT-GFP reporter) turned out to be 7.8 MFI and the percentage of GFP-positive cells at 100 ng/ml immobilized ligand (NFAT-GFP reporter) stood at 5.6%.
